Reference: patent publication US20190194334A1

Target: cell surface (plasma membrane) nucleolin of human tumor cells (human) (UniProt P19338)
Test: flow cytometry of non-permeabilized MCF-7 cells, dot plot of side scatter against FITC fluorescence [B]

UniProt P19338, sequence (P19338 2-710 limits assumed): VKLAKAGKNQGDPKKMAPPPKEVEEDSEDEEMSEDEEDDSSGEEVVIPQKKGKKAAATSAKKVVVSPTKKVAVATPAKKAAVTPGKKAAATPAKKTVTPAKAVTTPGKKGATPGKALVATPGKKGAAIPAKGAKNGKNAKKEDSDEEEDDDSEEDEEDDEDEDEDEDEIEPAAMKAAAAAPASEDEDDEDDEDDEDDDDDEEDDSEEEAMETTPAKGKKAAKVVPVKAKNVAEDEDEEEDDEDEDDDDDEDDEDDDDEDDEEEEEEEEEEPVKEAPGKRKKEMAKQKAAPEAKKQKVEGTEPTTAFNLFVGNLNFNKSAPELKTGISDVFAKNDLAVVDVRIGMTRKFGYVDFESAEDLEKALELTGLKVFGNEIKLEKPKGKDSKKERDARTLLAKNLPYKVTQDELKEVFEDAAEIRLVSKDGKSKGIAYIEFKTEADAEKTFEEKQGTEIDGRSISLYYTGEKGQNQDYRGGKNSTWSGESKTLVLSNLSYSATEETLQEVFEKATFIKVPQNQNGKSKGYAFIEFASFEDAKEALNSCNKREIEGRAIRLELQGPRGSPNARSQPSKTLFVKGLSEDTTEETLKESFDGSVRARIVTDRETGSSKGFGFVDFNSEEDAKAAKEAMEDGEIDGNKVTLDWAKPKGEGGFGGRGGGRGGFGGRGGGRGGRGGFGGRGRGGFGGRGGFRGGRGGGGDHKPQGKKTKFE

percent of cells in the FITC-positive gate: 1.5%
Substance: Control IgG-FITC (antibody)
